We go through 8 molecules from patent US20130323259A1 (Novo Nordisk, published 2013).

Where “and” joins values, the source holds several entries; their conditions need not be identical. Identical values can stand only once. A value given as a limit tells only on which side of the number the result lay.

For assay [1], the target named is hIL-21: human recombinant IL-21, corresponding to residues 30-162 and with an N-terminal Methionine as … (human, UniProt Q9HBE4 30-162). Nature of the assay: HX-MS, 4 µM hIL-21 with 2.4 µM mAb.
Sequence of hIL-21: human recombinant IL-21, corresponding to residues 30-162 and with an N-terminal Methionine as … (Q9HBE4 other isoform, or with tags, fused parts or gaps): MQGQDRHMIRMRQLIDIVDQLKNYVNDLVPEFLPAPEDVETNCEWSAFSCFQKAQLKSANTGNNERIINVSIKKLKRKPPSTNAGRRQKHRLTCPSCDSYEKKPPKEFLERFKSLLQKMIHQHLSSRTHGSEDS
Assay [2] has as its target T1, human IL-21 (hIL-21 protein; recombinant human IL-21) (human, UniProt Q9HBE4 25-162, limits assumed). Nature of the assay: SPR, Biacore T200, mAb captured by anti-human Fc, hIL-21 as analyte; exp no 2. How it is done:
(§1) Anti-human Fc monoclonal from Biacore human Fc capture kit was immobilized onto flow cells of a CM4 sensor chip according to the manufacturer's instructions. […] The CM4 surface was regenerated after each injection cycle of analyte via two injections of 3M MgCl₂ at 50 μl/min.
(§2) In order to receive kinetic data, such as ka (association rate), kd (dissociation rate) and KD (equilibrium dissociation constant), data analysis was performed using the Biacore T200 evaluation software 1.0.
(Surface plasmon resonance follows binding to a sensor surface in real time, without labels.)

Assay [3] addresses T1, human IL-21 (hIL-21 protein; …). Nature of the assay: SPR, Biacore T200, mAb captured by anti-human Fc, hIL-21 as analyte; exp no 1; Exp no 1, first of the two exp-1 rows for 0005.
Assay [4] shares this target. Nature of the assay: SPR (Biacore), average of experiments.
Assay [5] has the same target. Nature of the assay: SPR (Biacore), mAb captured by anti-Fc, hIL-21 as analyte; experiment no 2.
Assay [6] has the same target. Put plainly: SPR, Biacore T200, mAb captured by anti-human Fc, hIL-21 as analyte; exp no 1. On the procedure:
as §1, §2

For assay [7] the target is unchanged. Put plainly: cell-based or functional assay.
For assay [8] the target is unchanged. Put plainly: SPR (Biacore), mAb captured by anti-Fc, hIL-21 as analyte; experiment no 1.
Assay [9] has the same target. Nature of the assay: cell-based or functional assay. The source holds these as a separate data set.
Assay [10] shares this target. Nature of the assay: SPR (Biacore), mAb captured by anti-Fc, hIL-21 as analyte; experiment no 6.
The target is the same in assay [11]. Put plainly: SPR, Biacore T200, average of two experiments. How it is done: as §1, §2

T1 sequence (Q9HBE4 25-162 limits assumed): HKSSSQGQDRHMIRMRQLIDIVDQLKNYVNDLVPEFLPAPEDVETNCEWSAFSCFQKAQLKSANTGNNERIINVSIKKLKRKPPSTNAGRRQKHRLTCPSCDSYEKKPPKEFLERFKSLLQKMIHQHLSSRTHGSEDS

B1: monoclonal antibody NNC 0114-0005 (antibody, human IgG1, kappa, V domains shown)
VH: QVQLVESGGGVVQPGRSLRLSCAASGFTFSSYGMHWVRQAPGKGLEWVAFIWYDGSDKYYADSVKGRFTISRDNSKNTLYLQMNSLRAEDTAVYYCARDGDSSDWYGDYYFGMDVWGQGTTVTVSS
VL: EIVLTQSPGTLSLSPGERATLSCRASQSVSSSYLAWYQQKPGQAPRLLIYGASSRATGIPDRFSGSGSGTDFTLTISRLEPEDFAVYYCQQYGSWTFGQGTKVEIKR
notes: also called NNC114-0005
Broadly, the Kd is the free concentration of one partner at which half of the binding sites on the other are occupied at equilibrium, for simple one-to-one binding. In general, koff refers to the first-order rate constant of dissociation. By kon is commonly meant the rate constant with which the complex forms. On to B1, for which, in assay [1], the “amides protected from exchange in region E93-V98 at 100 sec” value (“amides protected from exchange” for short) is around 2 amides. In [2], the Kd stood at 0.17 pM, the dissociation rate constant (koff) was found to be 1.1e-05 s⁻¹ and the kon was found to be 6.6e+07 M⁻¹ s⁻¹. The association rate constant (kon) in assay [3] was found to be 1.6e+07 M⁻¹ s⁻¹. In addition, in [4], the equilibrium dissociation constant (Kd) is at most 1 pM and the off-rate (koff) came to 1e-05 s⁻¹. Moreover, in [5], the Kd stood at 0.17 pM, the koff was found to be 1.1e-05 s⁻¹ and the on-rate (kon) is 6.6e+07 M⁻¹ s⁻¹. In assay [6], the Kd is 0.58 pM and 0.72 pM; the off-rate (koff) was 9.5e-06 s⁻¹ and 1.1e-05 s⁻¹; the kon was determined as 1.5e+07 M⁻¹ s⁻¹. Further, in [7], the “IC50 (nM), B cell proliferation, Donor 1 (0114-0000-0006)” value is 0.82 nM; the “IC50 (nM), B cell proliferation, Donor 2 (0114-0000-0006)” value worked out at 0.83 nM; the “IC50 (nM), B cell proliferation, Donor 3 (0114-0000-0006)” value is 0.57 nM; the “IC50 (nM), B cell proliferation, Donor 4 (0114-0000-0006)” value was 1.33 nM. In [8], the Kd is 0.58 pM and 0.72 pM; the off-rate constant (koff) is 9.5e-06 s⁻¹ and 1.1e-05 s⁻¹; the kon was 1.6e+07 M⁻¹ s⁻¹ and 1.5e+07 M⁻¹ s⁻¹.

B2: 0114-0000-0043, light chain R55K variant of mAb 0006 (NNC 0114-0005) (antibody, human IgG1, kappa, V domains shown)
VH: QVQLVESGGGVVQPGRSLRLSCAASGFTFSSYGMHWVRQAPGKGLEWVAFIWYDGSDKYYADSVKGRFTISRDNSKNTLYLQMNSLRAEDTAVYYCARDGDSSDWYGDYYFGMDVWGQGTTVTVSS
VL: EIVLTQSPGTLSLSPGERATLSCRASQSVSSSYLAWYQQKPGQAPRLLIYGASSKATGIPDRFSGSGSGTDFTLTISRLEPEDFAVYYCQQYGSWTFGQGTKVEIKR
For the molecule B2, the “Bioactivity as % of RM (NCC0114-0000-0006), NK-92 bioassay” value (“Bioactivity as % of RM” for short) in assay [9] was found to be 89.8%. Besides, in assay [7], the “IC50 (nM), B cell proliferation, Donor 2” value worked out at 0.3 nM and the “IC50 (nM), B cell proliferation, Donor 4” value turned out to be 1.35 nM.

B3: 0114-0000-0039, light chain S53A variant of mAb 0006 (NNC 0114-0005) (antibody, human IgG1, kappa, V domains shown)
VH: QVQLVESGGGVVQPGRSLRLSCAASGFTFSSYGMHWVRQAPGKGLEWVAFIWYDGSDKYYADSVKGRFTISRDNSKNTLYLQMNSLRAEDTAVYYCARDGDSSDWYGDYYFGMDVWGQGTTVTVSS
VL: EIVLTQSPGTLSLSPGERATLSCRASQSVSSSYLAWYQQKPGQAPRLLIYGAASRATGIPDRFSGSGSGTDFTLTISRLEPEDFAVYYCQQYGSWTFGQGTKVEIKR
Consider B3, for which, in assay [1], the “amides protected from exchange” value is around 2 amides. Moreover, the “Bioactivity as % of RM” value in [9] turned out to be 95.2%. In assay [7], the “IC50 (nM), B cell proliferation, Donor 1” value turned out to be 0.78 nM and the “IC50 (nM), B cell proliferation, Donor 3” value amounted to 0.92 nM.

B4: 0114-0000-0040, light chain S53T variant of mAb 0006 (NNC 0114-0005) (antibody, human IgG1, kappa, V domains shown)
VH: QVQLVESGGGVVQPGRSLRLSCAASGFTFSSYGMHWVRQAPGKGLEWVAFIWYDGSDKYYADSVKGRFTISRDNSKNTLYLQMNSLRAEDTAVYYCARDGDSSDWYGDYYFGMDVWGQGTTVTVSS
VL: EIVLTQSPGTLSLSPGERATLSCRASQSVSSSYLAWYQQKPGQAPRLLIYGATSRATGIPDRFSGSGSGTDFTLTISRLEPEDFAVYYCQQYGSWTFGQGTKVEIKR
For B4, the “amides protected from exchange” value in assay [1] is around 2 amides. In addition, the “Bioactivity as % of RM” value in [9] was determined as 92.9%. In assay [7], the “IC50 (nM), B cell proliferation, Donor 1” value turned out to be 0.93 nM and the “IC50 (nM), B cell proliferation, Donor 3” value was determined as 1 nM.

B5: monoclonal antibody NNC 0114-0015 (antibody, V domains shown)
VH: QVQLVESGGGVVQPGRSLRLSCAASGFTFSTYGMHWVRQAPGKGLEWVAFIWYDGSDKYYADSVKGRFTISRDNSKNTLYLQMNSLRAEDTAVYYCARDGDSSDWYGDYYFGMDVWGQGTTVTVSS
VL: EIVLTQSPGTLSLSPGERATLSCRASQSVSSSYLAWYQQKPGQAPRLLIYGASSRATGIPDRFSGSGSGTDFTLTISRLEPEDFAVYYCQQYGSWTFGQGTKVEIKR
notes: also called NNC114-0015
For the molecule B5, in assay [10], the Kd was 0.12 pM and 0.18 pM and 0.28 pM; the dissociation rate constant (koff) is 6.8e-06 s⁻¹ and 8.9e-06 s⁻¹ and 1.2e-05 s⁻¹; the kon was 5.5e+07 M⁻¹ s⁻¹ and 4.9e+07 M⁻¹ s⁻¹ and 4.3e+07 M⁻¹ s⁻¹. Moreover, in [4], the equilibrium dissociation constant (Kd) was at most 1 pM and the off-rate (koff) came to 1e-05 s⁻¹. Moreover, in assay [7], the “IC50 (nM), B cell proliferation, Donor 1” value turned out to be 1.23 nM; the “IC50 (nM), B cell proliferation, Donor 2” value is 0.86 nM; the “IC50 (nM), B cell proliferation, Donor 3” value is 1.13 nM; the “IC50 (nM), B cell proliferation, Donor 4” value turned out to be 0.91 nM.

B6: 0114-0000-0041, light chain S54A variant of mAb 0006 (NNC 0114-0005) (antibody, human IgG1, kappa, V domains shown)
VH: QVQLVESGGGVVQPGRSLRLSCAASGFTFSSYGMHWVRQAPGKGLEWVAFIWYDGSDKYYADSVKGRFTISRDNSKNTLYLQMNSLRAEDTAVYYCARDGDSSDWYGDYYFGMDVWGQGTTVTVSS
VL: EIVLTQSPGTLSLSPGERATLSCRASQSVSSSYLAWYQQKPGQAPRLLIYGASARATGIPDRFSGSGSGTDFTLTISRLEPEDFAVYYCQQYGSWTFGQGTKVEIKR
On to B6, for which, in assay [1], the “amides protected from exchange” value was around 2 amides. Besides, in assay [9], the “Bioactivity as % of RM” value turned out to be 83.9%. In assay [7], the “IC50 (nM), B cell proliferation, Donor 1” value stood at 1.15 nM and the “IC50 (nM), B cell proliferation, Donor 3” value came out at 1.12 nM.

B7: NNC-0114-0044, Light-chain residue 57 Thr to Ser mutated form (L:T57S) of NNC 0114-0005 (antibody, human IgG1, kappa, V domains shown)
VH: QVQLVESGGGVVQPGRSLRLSCAASGFTFSSYGMHWVRQAPGKGLEWVAFIWYDGSDKYYADSVKGRFTISRDNSKNTLYLQMNSLRAEDTAVYYCARDGDSSDWYGDYYFGMDVWGQGTTVTVSS
VL: EIVLTQSPGTLSLSPGERATLSCRASQSVSSSYLAWYQQKPGQAPRLLIYGASSRASGIPDRFSGSGSGTDFTLTISRLEPEDFAVYYCQQYGSWTFGQGTKVEIKR
On to B7, for which, in assay [2], the dissociation constant (Kd) came to 0.24 pM, the koff is 1.3e-05 s⁻¹ and the on-rate constant (kon) worked out at 5.4e+07 M⁻¹ s⁻¹. The “Bioactivity as % of RM” value in assay [9] was 77.8%. For the same molecule, in [6], the Kd is at most 0.46 pM, the dissociation rate constant (koff) was at most 1e-05 s⁻¹ and the on-rate (kon) was determined as 2.2e+07 M⁻¹ s⁻¹. For the same molecule, in assay [7], the “IC50 (nM), B cell proliferation, Donor 2” value came out at 0.8 nM and the “IC50 (nM), B cell proliferation, Donor 4” value was determined as 1.17 nM. Further, in [11], the dissociation constant Kd is at most 1 pM and the koff came out at 1e-05 s⁻¹.

B8: NNCD-0114-0000-0038, Heavy-chain residue 31 Ser to Ala mutated form (H:S31A) of NNC 0114-0005 (antibody, human IgG1, kappa, V domains shown)
VH: QVQLVESGGGVVQPGRSLRLSCAASGFTFSAYGMHWVRQAPGKGLEWVAFIWYDGSDKYYADSVKGRFTISRDNSKNTLYLQMNSLRAEDTAVYYCARDGDSSDWYGDYYFGMDVWGQGTTVTVSS
VL: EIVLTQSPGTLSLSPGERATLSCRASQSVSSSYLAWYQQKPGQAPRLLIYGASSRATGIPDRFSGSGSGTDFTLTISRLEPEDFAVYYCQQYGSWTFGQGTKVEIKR
Regarding B8, the “amides protected from exchange” value in assay [1] was around 2 amides. In [2], the dissociation constant Kd came to 0.09 pM, the koff was determined as 6.8e-06 s⁻¹ and the on-rate constant (kon) was found to be 7.5e+07 M⁻¹ s⁻¹. The “Bioactivity as % of RM” value in assay [9] came to 89.2%. In assay [6], the dissociation constant Kd was 0.43 pM and 0.42 pM; the koff is 1.2e-05 s⁻¹ and 1.1e-05 s⁻¹; the kon worked out at 2.7e+07 M⁻¹ s⁻¹. Moreover, in assay [7], the “IC50 (nM), B cell proliferation, Donor 1” value came out at 1.18 nM and the “IC50 (nM), B cell proliferation, Donor 3” value was found to be 1.21 nM. In assay [11], the dissociation constant (Kd) was at most 1 pM and the koff came out at 1e-05 s⁻¹.
